Reference: paper PMC3551926, “Dact2 Represses PITX2 Transcriptional Activation and Cell Proliferation through Wnt/beta-Catenin Signaling during Odontogenesis” (PLoS ONE, 2013)

Molecular target: GST-PITX2A-FL (full length) (UniProt Q99697-3 1-271)
Assay: cell-based or functional assay

- luciferase reporter driven by the Amelx 2.2 kb promoter in cells co-transfected with PITX2A and Dact2: fold activation by PITX2A with Dact2 (∼22-fold without Dact2): 14 fold activation
B1: Dact2, purified bacterially expressed protein (natural protein, mouse, UniProt Q7TN08 1-757, looked up)
chain: MWAPSGQGPAGWDRRRVGARLRAALAGLQELQGLRATQQARVRGALGLHPAPGPRGQELRLEAALTALREQLSRLRRQDAGLKTHLDQLDQQISELQLDVSRSSCEALDSDSRPSSGFYELSDAGSCSLSTSCASVCSDRLSPSLGSWLPVFQPSKSRSGIGDWRPRSADETTVPAWSPQLTEDSRLLHGAEGTGRLTGMFRPRPVSTGDLERVLPADVGLQRAGTDAAHLLGQGIEIPAHALDPTYQRDLVARGGQEVYPYPSPLHAVALQSPLFALPKEAPCFDICSPPQEPPLVPVDENRTQPEPIRELGSAEAYIHRLLHLRGQELPLRDVGQEQGGDTAAFPPKPCGQRSESTCQLEKQACGADRGGLKLGRGAAKDSLKQHGPVSLVGAEPLSSPLKEETIPWNPCVHGDNTVGSSPCSQAQQPLNDCGQGPVLSPSRVLGTESPPLAPEPFAYTSCTTGETSPVKLRMGFSQNKAVKVRRRVSEKVPRLGKQLPPQPERQRVTERDPSRPHQGGLSRRPTLAREPPGRSCSESTLYPVPFLVPVVVAQRESYPTSPQAFFPMEAALLSSAARRKQRRWQSTMEISAKAGSVSQPGPSMGLPRSPAKRGSGPRAQSRPTLARQDACARCESDPSEHSADCTSLYHSTIAETSEDEEASDHTANRFGDESSSNDSEGCFRGSRRRLAIGSAEAGQGGWAWPRVPPQQPSRAPGNTRPPLPPVPKLCRIKASKALKKKIRRFQPAALKVMTMV
